The series addresses T1, 3xFLAG-STM0347 (Salmonella enterica serovar Typhimurium (strain not stated in the given text)) (UniProt H9L417).
T1 sequence: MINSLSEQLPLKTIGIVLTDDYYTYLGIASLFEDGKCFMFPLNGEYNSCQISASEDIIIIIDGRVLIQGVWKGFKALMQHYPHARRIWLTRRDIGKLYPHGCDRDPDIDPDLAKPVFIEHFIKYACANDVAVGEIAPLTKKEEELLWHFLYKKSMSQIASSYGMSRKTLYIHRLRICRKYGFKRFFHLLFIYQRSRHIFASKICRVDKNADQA
Kind of series: EMSA. Particulars: 10 mM Tris-HCl pH 8.3, 50 mM KCl, 1 mM MgCl2, 0.5 mM DTT, 0.5 mM EDTA, 50 ug/mL BSA, 0.2% glycerol; room temperature 20 min; 6% native PAGE in 1x TAE in ice …. (A gel shift assay detects complexes by their altered migration in electrophoresis.)

Turning to “CATCGCTCAAAACACTACCAGACACAGTATTCACCTGGAAAGGCTTTTTAATCAAAATGTTAGATGTAAGCAATTACGGACAGAAAAAATAGTAAAGTTTATGCCTCAAGTGTCGATAACCTGGATGACACAGGTAAGCCTGGCATAACATTGGTTATCAAAAACCTTCCAAAAGGAAAATTTTATGGCACAAGTAATCAACACTAACAGTCTGTCGCTGCTGACCCAGAATAACCTGAACAAATCCCAGTCCGCACTGGGCACCGCTATCGAGCGTCTGTCTTCTGGTCTGCGTATCAA (double strand) [fljB promoter fragment]”, the binding result is “no binding”.
